Assay results: patent US20200017592A1 (Regeneron, published 2020)
Each block holds one binder with its values, some of them ahead of it.

Tests used:
[1] = biological target: T1, full-length human IL-36R on cells (human, UniProt Q9HB29 20-575); experiment: cell-based or functional assay
T1 sequence (looked up): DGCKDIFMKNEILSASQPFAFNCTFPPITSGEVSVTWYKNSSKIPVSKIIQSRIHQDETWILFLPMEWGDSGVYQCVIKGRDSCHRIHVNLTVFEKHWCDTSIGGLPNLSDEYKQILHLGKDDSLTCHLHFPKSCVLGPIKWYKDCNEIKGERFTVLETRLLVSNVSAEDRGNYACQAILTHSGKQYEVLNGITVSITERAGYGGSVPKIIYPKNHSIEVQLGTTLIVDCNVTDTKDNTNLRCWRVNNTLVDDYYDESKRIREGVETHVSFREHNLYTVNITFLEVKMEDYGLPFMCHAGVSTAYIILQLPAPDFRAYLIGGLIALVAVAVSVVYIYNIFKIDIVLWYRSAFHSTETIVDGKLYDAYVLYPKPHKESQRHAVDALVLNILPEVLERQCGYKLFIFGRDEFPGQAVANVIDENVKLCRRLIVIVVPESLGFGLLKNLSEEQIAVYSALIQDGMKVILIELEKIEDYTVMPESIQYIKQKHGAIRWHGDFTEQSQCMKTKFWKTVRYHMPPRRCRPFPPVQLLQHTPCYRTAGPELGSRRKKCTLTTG

[2] = biological target: T2, Macaca fascicularis IL-36R on cells (Macaca fascicularis, UniProt A0A2K5WSK9 20-558); experiment: cell-based or functional assay
T2 sequence: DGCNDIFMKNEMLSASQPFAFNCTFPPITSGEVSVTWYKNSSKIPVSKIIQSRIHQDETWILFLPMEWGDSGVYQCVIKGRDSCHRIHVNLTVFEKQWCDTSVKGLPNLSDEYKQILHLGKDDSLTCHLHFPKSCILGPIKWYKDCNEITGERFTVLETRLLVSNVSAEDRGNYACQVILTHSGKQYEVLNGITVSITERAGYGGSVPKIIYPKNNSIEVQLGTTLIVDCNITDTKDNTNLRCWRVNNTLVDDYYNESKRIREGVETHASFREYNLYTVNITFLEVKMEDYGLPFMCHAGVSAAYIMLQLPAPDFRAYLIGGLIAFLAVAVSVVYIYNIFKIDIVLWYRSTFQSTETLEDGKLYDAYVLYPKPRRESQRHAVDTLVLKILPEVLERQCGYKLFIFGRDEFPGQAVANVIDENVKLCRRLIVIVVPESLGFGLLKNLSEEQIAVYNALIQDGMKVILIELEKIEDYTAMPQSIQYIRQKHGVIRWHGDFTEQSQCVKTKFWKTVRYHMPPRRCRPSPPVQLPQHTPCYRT

[3] = biological target: T3, recombinant human IL-36R extracellular domain expressed with a C-terminal myc-myc-hexahistidine tag (human, UniProt Q9HB29 20-337); experiment: SPR (Biacore 4000), mAb captured on anti-human Fc, 25°C
T3 construct: also called hIL-36R-MMH; hIL-36R.mmH
Method: (§1) Equilibrium dissociation constants (KD values) for IL-36R binding to purified anti-IL-36R antibodies were determined using a real-time surface plasmon resonance biosensor using a Biacore 4000 instrument. The Biacore sensor surface was first derivatized by amine coupling with a monoclonal mouse anti-human Fc antibody (GE, # BR-1008-39) to capture anti-IL-36R monoclonal antibodies. All binding studies were performed in 0.01 M Hepes pH 7.4, 0.15 M NaCl, 3 mM EDTA, and 0.05% v/v Surfactant Tween-20 (HBS-ET running buffer) at 25° C. and 37° C. Different concentrations of IL-36R reagents, human IL-36R extracellular domain expressed with a C-terminal myc-myc-hexahistidine tag (hIL-36R-MMH), Macaca fascicularis IL-36R extracellular domain expressed with a C-terminal myc-myc-hexahistidine tag (mfIL-36R-MMH: mROR1 signal sequence (M1-A29). Macaca fascicularis IL36R_ecto domain (D20-A336).mycmycHis6), human IL-36R extracellular domain expressed with a C-terminal mouse IgG2a Fc tag (hIL-36R-mFc: mROR1 signal sequence (M1-A29)-human IL36R (D20-Y337)-mouse IgG2aFc (E98-K330)) or an in-line fusion protein of human IL-36R extracellular domain and IL1RAcP extracellular domain expressed with mouse IgG2a Fc tag (hIL-36R-Trap-mFc: mROR1 signal sequence (M1-A29)-human IL36R ecto domain (D20-Y337)-human IL1RacP ecto domain(S21-E359)-mouse IgG2aFc) in HBS-ET running buffer (ranging from 100 nM to 3.7 nM, 3-fold dilutions) were injected over the anti-IL-36R antibody captured surface for 4 minutes at a flow rate of 30 μL/minute and their dissociation in HBS-ET running buffer was monitored for 10 minutes. Kinetic association rate constant (kₐ) and dissociation rate constant (kd) were determined by fitting the real-time sensorgrams to a 1:1 binding model using Scrubber 2.0c curve fitting software. Binding dissociation equilibrium constants (KD) and dissociative half-lives (t_{1/2}) were calculated from the kinetic rate constants as: […]

[4] = biological target: T3, recombinant human IL-36R extracellular …; experiment: SPR (Biacore 4000), mAb captured on anti-human Fc, 37°C
Method: as §1

IC50 [M], NFκB-luciferase, 10 pM hIL-36γ [1]: 7e-10 M | IC50 [M], NFκB-luciferase, 20 pM hIL-36α [1]: 4.9e-10 M | Max Inhibition (%), NFκB-luciferase, 10 pM hIL-36γ [1]: 49% | Max Inhibition (%), NFκB-luciferase, 20 pM hIL-36α [1]: 99% | IC50 [M], NFκB-luciferase, 300 pM hIL-36γ [2]: > 1e-07 M | IC50 [M], NFκB-luciferase, 600 pM hIL-36β [2]: > 1e-07 M | Max Inhibition (%), NFκB-luciferase, 300 pM hIL-36γ [2]: 43% | Max Inhibition (%), NFκB-luciferase, 600 pM hIL-36β [2]: 48% | 100 nM hIL-36R-MMH Bound (RU) [3]: 61 RU | Kd [3]: 6.11 nM | koff [3]: 0.000415 s⁻¹ | kon [3]: 67900 M⁻¹ s⁻¹ | t½ [3]: 28 min | 100 nM hIL-36R-MMH Bound (RU) [4]: 83 RU | Kd [4]: 23 nM | koff [4]: 0.00208 s⁻¹ | kon [4]: 90600 M⁻¹ s⁻¹ | t½ [4]: 6 min
B1: H4H14760P2 (antibody, human IgG4 S228P, kappa, V domains shown)
VH: QVQLVESGGGVVQPGKSLRLSCAASGFTFSNYGIHWVRQAPGKGLEWVAIILYDGSNQHYADSVKGRFTISRDNSKNTLYLQMNNLRAEDTAVYYCARDLDLWSGYYTNGDGMDVWGQGTTVTVSS
VL: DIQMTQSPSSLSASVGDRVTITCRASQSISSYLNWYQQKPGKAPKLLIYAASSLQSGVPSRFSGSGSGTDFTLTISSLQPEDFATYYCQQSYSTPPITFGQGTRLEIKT

IC50 [M], NFκB-luciferase, 10 pM hIL-36γ [1]: > 1e-08 M | IC50 [M], NFκB-luciferase, 15 pM hIL-36β [1]: > 1e-08 M | IC50 [M], NFκB-luciferase, 20 pM hIL-36α [1]: > 1e-08 M | Max Inhibition (%), NFκB-luciferase, 10 pM hIL-36γ [1]: 69% | Max Inhibition (%), NFκB-luciferase, 15 pM hIL-36β [1]: 69% | Max Inhibition (%), NFκB-luciferase, 20 pM hIL-36α [1]: 61% | IC50 [M], NFκB-luciferase, 300 pM hIL-36γ [2]: > 1e-07 M | IC50 [M], NFκB-luciferase, 500 pM hIL-36α [2]: > 1e-07 M | IC50 [M], NFκB-luciferase, 600 pM hIL-36β [2]: > 1e-07 M | Max Inhibition (%), NFκB-luciferase, 300 pM hIL-36γ [2]: 36% | Max Inhibition (%), NFκB-luciferase, 500 pM hIL-36α [2]: 47% | Max Inhibition (%), NFκB-luciferase, 600 pM hIL-36β [2]: 43% | 100 nM hIL-36R-MMH Bound (RU) [3]: 26 RU | Kd [3]: 13.9 nM | koff [3]: 0.000569 s⁻¹ | kon [3]: 41000 M⁻¹ s⁻¹ | t½ [3]: 20 min | 100 nM hIL-36R-MMH Bound (RU) [4]: 34 RU | Kd [4]: 27.6 nM | koff [4]: 0.00116 s⁻¹ | kon [4]: 42100 M⁻¹ s⁻¹ | t½ [4]: 10 min
B2: H4H14732P2 (antibody, human IgG4 S228P, kappa, V domains shown)
VH: EVQLVESGGGLVQPGRSLRLSCAASGFTFDDYAMHWVRQAPGKGLEWVSGINWAGYNIDYADSVKGRFTISRDNAKNSLYLQMNSLRAEDTALYYCAKDMRGFSYGFPFDYWGQGTLVTVSS
VL: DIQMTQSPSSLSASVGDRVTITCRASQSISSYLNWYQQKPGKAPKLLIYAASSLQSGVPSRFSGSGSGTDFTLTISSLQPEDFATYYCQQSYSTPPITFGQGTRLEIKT

IC50 [M], NFκB-luciferase, 10 pM hIL-36γ [1]: 1.3e-10 M | IC50 [M], NFκB-luciferase, 20 pM hIL-36α [1]: 1.8e-10 M | Max Inhibition (%), NFκB-luciferase, 10 pM hIL-36γ [1]: 87% | Max Inhibition (%), NFκB-luciferase, 20 pM hIL-36α [1]: 101% | IC50 [M], NFκB-luciferase, 300 pM hIL-36γ [2]: > 1e-07 M | IC50 [M], NFκB-luciferase, 500 pM hIL-36α [2]: > 1e-07 M | IC50 [M], NFκB-luciferase, 600 pM hIL-36β [2]: > 1e-07 M | Max Inhibition (%), NFκB-luciferase, 300 pM hIL-36γ [2]: 25% | Max Inhibition (%), NFκB-luciferase, 500 pM hIL-36α [2]: 29% | Max Inhibition (%), NFκB-luciferase, 600 pM hIL-36β [2]: 36% | 100 nM hIL-36R-MMH Bound (RU) [3]: 94 RU | Kd [3]: 2.18 nM | koff [3]: 0.000396 s⁻¹ | kon [3]: 182000 M⁻¹ s⁻¹ | t½ [3]: 29 min | 100 nM hIL-36R-MMH Bound (RU) [4]: 129 RU | Kd [4]: 5.18 nM | koff [4]: 0.00109 s⁻¹ | kon [4]: 210000 M⁻¹ s⁻¹ | t½ [4]: 11 min
B3: H4H14757P (antibody, human IgG4 S228P, kappa, V domains shown)
VH: EVQLVESGGGLVQPGRSLRLSCTASGFTFDDYAMHWVRQAPGKGLEWVSGIRWNGGSIGYVDSVKGRFTISRDNAKKSLHLQMNSLKTEDTALYYCAKDIGDILTGFYGEYGMDVWGQGTTVTVSS
VL: DIQMTQSPSSLSASEGDRVTITCRASQSISSYLNWYQQKAGKAPNLLIYAASSLQSGVPSRFSGSGSGTEYTLTISSLQPEDFATYYCQQSYIIPYTFGQGTKLEIKR
